Data set [1] concerns HeLa Kyoto. Description: solubility in G1/S (NP-40 vs SDS abundance) (log2 ratio); higher = more soluble. Particulars: cell cycle stage: G1/S.
The test system of data set [2] is HeLa Kyoto. As to the kind of experiment: solubility change mitosis vs G1/S (difference of NP-40 vs SDS log2 ratios) (log2 ratio difference); higher = more soluble in mitosis.
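Throughout, for solubility change mitosis vs G1/S (difference of NP-40 vs SDS log2 ratios): synchronized HeLa Kyoto cells (double thymidine block for G1/S, nocodazole release for mitosis), protein amounts in NP-40 versus SDS lysates quantified by mass spectrometry, three biological replicates.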
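Throughout, for solubility in G1/S (NP-40 vs SDS abundance): HeLa Kyoto cells arrested at G1/S by double thymidine block, proteins quantified by TMT10plex mass spectrometry in mild NP-40 versus SDS extracts, three biological replicates.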

“MAKFGVHRILLLAISLTKCLESTKLLADLKKCGDLECEALINRVSAMRDYRGPDCRYLNFTKGEEISVYVKLAGEREDLWAGSKGKEFGYFPRDAVQIEEVFISEEIQMSTKESDFLCLLGVSYTFDNEDSELNGDYGENIYPYEEDKDEKSSIYESDFQIEPGFYATYESTLFEDQVPALEAPEDIGSTSESKDWEEVVVESMEQDRIPEVHVPPSSAVSGVKEWFGLGGEQAEEKAFESVIEPVQESSFRSRKIAVEDENDLEELNNGEPQTEHQQESESEIDSVPKTQSELASESEHIPKPQSTGWFGGGFTSYLGFGDEDTGLELIAEESNPPLQDFPNSISSDKEATVPCTEILTEKKDTITNDSLSLKPSWFDFGFAILGFAYAKEDKIMLDDRKNEEDGGADEHEHPLTSELDPEKEQEIETIKIIETEDQIDKKPVSEKTDESDTIPYLKKFLYNFDNPWNFQNIPKETELPFPKQILDQNNVIENEETGEFSIDNYPTDNTKVMIFKSSYSLSDMVSNIELPTRIHEEVYFEPSSSKDSDENSKPSVDTEGPALVEIDRSVENTLLNSQMVSTDNSLSSQNYISQKEDASEFQILKYLFQIDVYDFMNSAFSPIVILTERVVAALPEGMRPDSNLYGFPWELVICAAVVGFFAVLFFLWRSFRSVRSRLYVGREKKLALMLSGLIEEKSKLLEKFSLVQKEYEGYEVESSLKDASFEKEATEAQSLEATCEKLNRSNSELEDEILCLEKELKEEKSKHSEQDELMADISKRIQSLEDESKSLKSQVAEAKMTFKIFQMNEERLKIAIKDALNENSQLQESQKQLLQEAEVWKEQVSELNKQKVTFEDSKVHAEQVLNDKESHIKTLTERLLKMKDWAAMLGEDITDDDNLELEMNSESENGAYLDNPPKGALKKLIHAAKLNASLKTLEGERNQIYIQLSEVDKTKEELTEHIKNLQTEQASLQSENTHFENENQKLQQKLKVMTELYQENEMKLHRKLTVEENYRLEKEEKLSKVDEKISHATEELETYRKRAKDLEEELERTIHSYQGQIISHEKKAHDNWLAARNAERNLNDLRKENAHNRQKLTETELKFELLEKDPYALDVPNTAFGREHSPYGPSPLGWPSSETRAFLSPPTLLEGPLRLSPLLPGGGGRGSRGPGNPLDHQITNERGESSCDRLTDPHRAPSDTGSLSPPWDQDRRMMFPPPGQSYPDSALPPQRQDRFCSNSGRLSGPAELRSFNMPSLDKMDGSMPSEMESSRNDTKDDLGNLNVPDSSLPAENEATGPGFVPPPLAPIRGPLFPVDARGPFLRRGPPFPPPPPGAMFGASRDYFPPGDFPGPPPAPFAMRNVYPPRGFPPYLPPRPGFFPPPPHSEGRSEFPSGLIPPSNEPATEHPEPQQET [CTAGE5]”: in the data set with HeLa Kyoto [1], the “solubility in G1/S (log2)” value is -0.0196. The “solubility change mitosis (log2)” value with HeLa Kyoto [2] is 0.181.
“MAKGRVAERSQLGAHHTTPVGDGAAGTRGLAAPGSRDHQKEKSWVEAGSARMSLLILVSIFLSAAFVMFLVYKNFPQLSEEERVNMKVPRDMDDAKALGKVLSKYKDTFYVQVLVAYFATYIFLQTFAIPGSIFLSILSGFLYPFPLALFLVCLCSGLGASFCYMLSYLVGRPVVYKYLTEKAVKWSQQVERHREHLINYIIFLRITPFLPNWFINITSPVINVPLKVFFIGTFLGVAPPSFVAIKAGTTLYQLTTAGEAVSWNSIFILMILAVLSILPAIFQKKLKQKFE [TMEM41B]”: the “solubility in G1/S (log2)” value in the data set with HeLa Kyoto [1] is -0.0617. Also, the “solubility change mitosis (log2)” value in the data set on HeLa Kyoto [2] was found to be 0.0116.
Take “MALEQALQAARQGELDVLRSLHAAGLLGPSLRDPLDALPVHHAARAGKLHCLRFLVEEAALPAAARARNGATPAHDASATGHLACLQWLLSQGGCRVQDKDNSGATVLHLAARFGHPEVVNWLLHHGGGDPTAATDMGALPIHYAAAKGDFPSLRLLVEHYPEGVNAQTKNGATPLYLACQEGHLEVTQYLVQECGADPHARAHDGMTPLHAAAQMGHSPVIVWLVSCTDVSLSEQDKDGATAMHFAASRGHTKVLSWLLLHGGEISADLWGGTPLHDAAENGELECCQILVVNGAELDVRDRDGYTAADLSDFNGHSHCTRYLRTVENLSVEHRVLSRDPSAELEAKQPDSGMSSPNTTVSVQPLNFDLSSPTSTLSNYDSCSSSHSSIKGQHPPCGLSSARAADIQSYMDMLNPELGLPRGTIGKPTPPPPPPSFPPPPPPPGTQLPPPPPGYPAPKPPVGPQAADIYMQTKNKLRHVETEALKKELSSCDGHDGLRRQDSSRKPRAFSKQPSTGDYYRQLGRCPGETLAARPGMAHSEEVRARQPARAGCPRLGPAARGSLEGPSAPPQAALLPGNHVPNGCAADPKASRELPPPPPPPPPPLPEAASSPPPAPPLPLESAGPGCGQRRSSSSTGSTKSFNMMSPTGDNSELLAEIKAGKSLKPTPQSKGLTTVFSGIGQPAFQPDSPLPSVSPALSPVRSPTPPAAGFQPLLNGSLVPVPPTTPAPGVQLDVEALIPTHDEQGRPIPEWKRQVMVRKMQLKMQEEEEQRRKEEEEEARLASMPAWRRDLLRKKLEEEREQKRKEEERQKQEELRREKEQSEKLRTLGYDESKLAPWQRQVILKKGDIAKY [ESPN]”: in the data set with HeLa Kyoto [1], the “solubility in G1/S (log2)” value is -0.041. Further, the “solubility change mitosis (log2)” value with HeLa Kyoto [2] is -0.0492.
“MALFVRLLALALALALGPAATLAGPAKSPYQLVLQHSRLRGRQHGPNVCAVQKVIGTNRKYFTNCKQWYQRKICGKSTVISYECCPGYEKVPGEKGCPAALPLSNLYETLGVVGSTTTQLYTDRTEKLRPEMEGPGSFTIFAPSNEAWASLPAEVLDSLVSNVNIELLNALRYHMVGRRVLTDELKHGMTLTSMYQNSNIQIHHYPNGIVTVNCARLLKADHHATNGVVHLIDKVISTITNNIQQIIEIEDTFETLRAAVAASGLNTMLEGNGQYTLLAPTNEAFEKIPSETLNRILGDPEALRDLLNNHILKSAMCAEAIVAGLSVETLEGTTLEVGCSGDMLTINGKAIISNKDILATNGVIHYIDELLIPDSAKTLFELAAESDVSTAIDLFRQAGLGNHLSGSERLTLLAPLNSVFKDGTPPIDAHTRNLLRNHIIKDQLASKYLYHGQTLETLGGKKLRVFVYRNSLCIENSCIAAHDKRGRYGTLFTMDRVLTPPMGTVMDVLKGDNRFSMLVAAIQSAGLTETLNREGVYTVFAPTNEAFRALPPRERSRLLGDAKELANILKYHIGDEILVSGGIGALVRLKSLQGDKLEVSLKNNVVSVNKEPVAEPDIMATNGVVHVITNVLQPPANRPQERGDELADSALEIFKQASAFSRASQRSVRLAPVYQKLLERMKH [TGFBI]”: the “solubility in G1/S (log2)” value with HeLa Kyoto [1] was -0.072. Further, the “solubility change mitosis (log2)” value in the data set with HeLa Kyoto [2] is -0.149.
For “MALLRRPTVSSDLENIDTGVNSKVKSHVTIRRTVLEEIGNRVTTRAAQVAKKAQNTKVPVQPTKTTNVNKQLKPTASVKPVQMEKLAPKGPSPTPEDVSMKEENLCQAFSDALLCKIEDIDNEDWENPQLCSDYVKDIYQYLRQLEVLQSINPHFLDGRDINGRMRAILVDWLVQVHSKFRLLQETLYMCVGIMDRFLQVQPVSRKKLQLVGITALLLASKYEEMFSPNIEDFVYITDNAYTSSQIREMETLILKELKFELGRPLPLHFLRRASKAGEVDVEQHTLAKYLMELTLIDYDMVHYHPSKVAAAASCLSQKVLGQGKWNLKQQYYTGYTENEVLEVMQHMAKNVVKVNENLTKFIAIKNKYASSKLLKISMIPQLNSKAVKDLASPLIGRS [CCNB2]”, in the data set with HeLa Kyoto [1], the “solubility in G1/S (log2)” value came to 0.241. Besides, the “solubility change mitosis (log2)” value in the data set on HeLa Kyoto [2] was 0.0941.
On to “MALRSAQGDGPTSGHWDGGAEKADFNAKRKKKVAEIHQALNSDPTDVAALRRMAISEGGLLTDEIRRKVWPKLLNVNANDPPPISGKNLRQMSKDYQQVLLDVRRSLRRFPPGMPEEQREGLQEELIDIILLILERNPQLHYYQGYHDIVVTFLLVVGERLATSLVEKLSTHHLRDFMDPTMDNTKHILNYLMPIIDQVNPELHDFMQSAEVGTIFALSWLITWFGHVLSDFRHVVRLYDFFLACHPLMPIYFAAVIVLYREQEVLDCDCDMASVHHLLSQIPQDLPYETLISRAGDLFVQFPPSELAREAAAQQQAERTAASTFKDFELASAQQRPDMVLRQRFRGLLRPEDRTKDVLTKPRTNRFVKLAVMGLTVALGAAALAVVKSALEWAPKFQLQLFP [TBC1D20]”, for which the “solubility in G1/S (log2)” value in the data set with HeLa Kyoto [1] was -0.427. In addition, the “solubility change mitosis (log2)” value in the data set on HeLa Kyoto [2] was -0.0896.

Source of the values: the supplement of paper PMC5998384.
